Experimental data from paper PMC2063392, “Antigenic determinants of prostate-specific antigen (PSA) and development of assays specific for different forms of PSA” (British Journal of Cancer, 1997).

Target: T1, human alpha2-macroglobulin (a2M) (human, UniProt P01023 24-1474)
T1 construct: human alpha2-macroglobulin bought from Biodesign; source: bought: Biodesign, MD, USA
T1 sequence (looked up): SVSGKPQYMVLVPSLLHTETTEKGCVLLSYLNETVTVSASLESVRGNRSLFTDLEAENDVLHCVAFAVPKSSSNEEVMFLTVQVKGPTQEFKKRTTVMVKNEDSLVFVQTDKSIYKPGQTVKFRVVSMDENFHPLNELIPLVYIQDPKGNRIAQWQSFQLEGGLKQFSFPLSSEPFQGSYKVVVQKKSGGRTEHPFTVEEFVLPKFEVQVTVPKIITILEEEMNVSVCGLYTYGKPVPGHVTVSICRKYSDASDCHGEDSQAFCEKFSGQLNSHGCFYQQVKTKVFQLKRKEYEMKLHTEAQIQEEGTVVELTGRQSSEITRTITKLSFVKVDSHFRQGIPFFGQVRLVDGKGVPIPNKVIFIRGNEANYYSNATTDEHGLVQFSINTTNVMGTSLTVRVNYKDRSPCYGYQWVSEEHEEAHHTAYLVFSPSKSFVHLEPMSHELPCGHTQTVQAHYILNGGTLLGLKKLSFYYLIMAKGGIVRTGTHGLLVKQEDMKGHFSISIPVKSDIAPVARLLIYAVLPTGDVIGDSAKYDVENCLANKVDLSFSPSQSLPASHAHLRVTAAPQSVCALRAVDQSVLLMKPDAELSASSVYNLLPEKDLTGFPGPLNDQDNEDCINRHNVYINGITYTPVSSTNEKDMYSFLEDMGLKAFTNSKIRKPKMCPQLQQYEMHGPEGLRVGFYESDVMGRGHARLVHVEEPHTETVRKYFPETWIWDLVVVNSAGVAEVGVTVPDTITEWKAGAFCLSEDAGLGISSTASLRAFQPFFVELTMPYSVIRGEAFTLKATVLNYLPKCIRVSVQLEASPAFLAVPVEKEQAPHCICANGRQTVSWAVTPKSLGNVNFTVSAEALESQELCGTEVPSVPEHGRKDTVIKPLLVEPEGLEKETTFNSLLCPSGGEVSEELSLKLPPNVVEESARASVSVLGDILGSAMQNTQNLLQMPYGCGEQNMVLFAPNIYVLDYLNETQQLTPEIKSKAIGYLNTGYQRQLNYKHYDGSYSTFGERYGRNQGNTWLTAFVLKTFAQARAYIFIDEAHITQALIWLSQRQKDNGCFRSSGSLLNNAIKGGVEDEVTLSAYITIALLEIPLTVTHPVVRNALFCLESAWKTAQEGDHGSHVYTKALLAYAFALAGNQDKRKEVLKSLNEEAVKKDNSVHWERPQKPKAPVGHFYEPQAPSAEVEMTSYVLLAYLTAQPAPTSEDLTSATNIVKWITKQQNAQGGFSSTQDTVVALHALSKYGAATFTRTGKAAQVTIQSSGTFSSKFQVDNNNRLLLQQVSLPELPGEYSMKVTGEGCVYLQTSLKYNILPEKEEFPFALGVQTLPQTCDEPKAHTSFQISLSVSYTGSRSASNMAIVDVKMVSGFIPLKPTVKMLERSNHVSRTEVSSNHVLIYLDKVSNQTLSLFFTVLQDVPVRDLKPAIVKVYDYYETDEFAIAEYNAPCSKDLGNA
Assay: loss of PSA immunoreactivity after incubation; human a2M incubated with twofold molar excess of PSA for 4 h at 37 C, used without further purification; PSA concentration determined before and after incubation
Details: both partners purified

binding result: binds
B1: prostate-specific antigen (PSA) (enzyme)
chain: not shown
notes: human prostate-specific antigen (PSA), 32 to 33-kDa single-chain glycoprotein from seminal plasma; the preparation also holds 'nicked' (internally cleaved) forms; also called F-PSA; free PSA; source: purified from pooled seminal plasma from healthy volunteers (ion-exchange chromatography and gel chromatography); also used unpurified in seminal plasma
